The supplement of paper PMC11865577

Test system: TO-3-N3 (biotin conjugate)
Test: pull-down binding Z-score (relative to library population); higher = stronger binding
Conditions: RNA library: Library-2
Summary of the method: (§1)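 To score binding, a beads-only signal was subtracted, barcoded replicate probes were averaged with the highest and lowest dropped, and the value was converted to a Z-score using the library mean and standard deviation. The input was 1 μg of Cy5- or Cy3-end-labelled RNA library, heat-folded in phosphate/NaCl/KCl buffer and mixed for 60 min at 25 °C with streptavidin beads carrying 100 pmol of biotin-conjugated small molecule. Bound RNA was eluted in hot SDS and hybridised to a DNA barcode microarray at 55.5 °C for 20 h.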

Row | Sequence | pull-down binding Z-score
1 | CCGCUAGUGGAAGAAGAUGGCGG [hsa-mir-6125] | 0.322
2 | CCGGCCCGUUAGUUGCCCGGGCCCG [hsa-mir-3181] | -0.57
3 | CCGGGCGCUGCUCUGACCCCUCGU [hsa-mir-187] | 0.166
4 | CCGGGGCAGGAGACCCCGCG [hsa-mir-1470] | -0.389
5 | CCGGGUGCCCACAAGACUGUG [hsa-mir-3138] | 0.49
6 | CCGUAUAUAUAUAUAUAUAUAUAUAGAUAUCUCCAUAUAUAUGG [hsa-mir-620] | -0.865
7 | CCGUGCCCUGGCCACUCAUUCGG [hsa-mir-6741] | 0.294
8 | CCGUUUAAAAAGGCAUCUCCAAG [hsa-mir-608] | 0.0622
9 | CCUAGAGUCCAUUCUUUACUCUAGG [hsa-mir-4779] | -0.699
10 | CCUAGUGGCUAGCCCUGGGUCUAGCAGCCUAUGGCAGUGUCUGGUAAACACUGGUGGAGUCCUGGG [hsa-mir-6745] | -0.189
11 | CCUCAAUCACUUGCCAGAGAGAUUGG [hsa-mir-1200] | 0.0255
12 | CCUCACCUGCUGAGAG [hsa-mir-3670-3_3670-2_3670-1_3670-4] | -0.258
13 | CCUCCCCCAGUGCCAGG [hsa-mir-3196] | -0.253
14 | CCUCCCUAGGGGAUCCCAGGUAGG [hsa-mir-4688] | 0.295
15 | CCUCGAAGCUGCCUUUAGAAAUGAGG [hsa-mir-4496] | -0.0169
16 | CCUCUCGGGAACUACAAGUCCCAGGGGG [hsa-mir-2861] | -0.694
17 | CCUCUGUCCUCUGUCCUCUACCUAUAGAGG [hsa-mir-641] | 0.224
18 | CCUGACAGACAGCCUGAUAGACAGG [hsa-mir-4661] | 2
19 | CCUGAUGAAUCUGAGGCCAGG [hsa-mir-577] | -0.271

Row | Sequence | pull-down binding Z-score
20 | CCUGCAGCCCCCAGGUGGGGGG [hsa-mir-4271] | 0.75
21 | CCUGCAGGUGAGAGCGGGAACACCUGCAU [hsa-mir-7112] | -0.176
22 | CCUGCCACGUCAAAGGAGGCAGA [hsa-mir-3154] | -0.302
23 | CCUGCCCAAAUGGUGGAGCAGAUUCGAGGGGCAGG [hsa-mir-4436b-2_4436b-1] | -0.218
24 | CCUGCCUCAGAACUACUGAACAGAGUCACUGGGUGUGGA [hsa-mir-1289-2] | -0.292
25 | CCUGCCUGCCCUCCAGGUCAUGUUCCAGUGUCCCACAGAUGCAGCACCACGG [hsa-mir-6075] | 0.0521
26 | CCUGCUGUGUGAAACAAAAGUAAG [hsa-mir-302c] | -0.422
27 | CCUGGAGAGCUGCUGUCUCCAG [hsa-mir-6746] | -0.114
28 | CCUGUAUGUCUCCCCGCAGCACCGUCAUCGU [hsa-mir-6774] | 0.498
29 | CCUGUCCUAUGACAAACAUGGCAGG [hsa-mir-3927] | -0.564
30 | CCUGUUUGAAUAUUUCACCAGAAACAGG [hsa-mir-4433b] | -0.311
31 | CCUGUUUUACAAAUAAGGAAAUAAACUCAGG [hsa-mir-1321] | -0.59
32 | CCUUAGCACUAGCAGGAGG [hsa-mir-612] | -0.588
33 | CCUUCCAAUACCUGUAAGCAGAAGG [hsa-mir-3158-2] | 0.0988
34 | CCUUCGCUUUAUUUGUGACGAAUC [hsa-mir-154] | -0.799
35 | CCUUCUAAUGAGUAUGCUUAACUUGGUAGAAGG [hsa-mir-3914-1] | -0.108
36 | CCUUCUACCAAGUUAAGCAUACUCAUUAGAAGG [hsa-mir-3914-2] | 0.653
37 | CCUUCUCCUCUUUGCAGUGAUAAAGGAGG [hsa-mir-4460] | -0.304
38 | CCUUCUGCUUACAGGUAUUGGAAGG [hsa-mir-3158-1] | -0.281

Row | Sequence | pull-down binding Z-score
39 | CCUUCUGUAUACAUGUAUACAGGAGGAAGG [hsa-mir-4716] | 0.507
40 | CCUUGCCUGUGGCAAGACCACUUCGGUUCAAGG [hsa-mir-4295] | 0.0272
41 | CCUUGUGAAUGUCGGGCAAUGG [hsa-mir-4701] | -0.0355
42 | CCUUUCCCCUCAGACCAAGG [hsa-mir-3131] | -0.315
43 | CCUUUGUGAGCAGUGUGACCCAAGGCCUGUGGACAGGG [hsa-mir-555] | -0.0854
44 | CGACUCCGUGGCAGAGUUCA [hsa-mir-3666] | 0.331
45 | CGAGAAGCGCCUGCGUCUCCCAUUUUCG [hsa-mir-3944] | 0.199
46 | CGAGACACAGAAACAGACACCUGCCCUCGA [hsa-mir-151b] | 0.442
47 | CGAGCCGCUUCCUCACGGCUCG [hsa-mir-4665] | -0.622
48 | CGAGGUGG [hsa-mir-4302] | 0.954
49 | CGAGGUGGGCUAGGCUCGGGCCCGUGGCG [hsa-mir-3656] | 0.715
50 | CGAGUCUGAGCCUUUAAAAGCCACUCU [hsa-mir-1287] | -0.321
51 | CGAUAAACCCCUAAAUAGGGACUUUCCCG [hsa-mir-484] | -0.473
52 | CGCCAGCUCGCUGACAGCACGACUCAGGGCG [hsa-mir-658] | -0.127
53 | CGCGCCCGGCCUAACUUUUAAGAAACGUCGGCCCGGGAGCG [hsa-mir-5095] | 1.24
54 | CGCGCGUCGAGUCAGCCGUGUG [hsa-mir-933] | -0.126
55 | CGCGGAGCAGCGCUGGGUGCAGCGCCUG [hsa-mir-4508] | -0.051
56 | CGCGGGCGGGUCCCAGGCUGGGCCCCUCGGAGGCCGGGUGCUCACUGCCCCGUCCCGG [hsa-mir-6789] | 0.75

Test system: G-clamp-N3 (biotin conjugate)
Test: as above
Conditions: RNA library: Library-1 (pre-miRNA loops + repeats)
Summary of the method: as §1

Row | Sequence | pull-down binding Z-score
57 | CCGCUAGUGGAAGAAGAUGGCGG [hsa-mir-6125] | 1.5
58 | CCGGCCCGUUAGUUGCCCGGGCCCG [hsa-mir-3181] | -0.29
59 | CCGGGCGCUGCUCUGACCCCUCGU [hsa-mir-187] | 0.00395
60 | CCGGGGCAGGAGACCCCGCG [hsa-mir-1470] | -0.305
61 | CCGGGUGCCCACAAGACUGUG [hsa-mir-3138] | -0.253
62 | CCGUAUAUAUAUAUAUAUAUAUAUAGAUAUCUCCAUAUAUAUGG [hsa-mir-620] | 1.15
63 | CCGUGCCCUGGCCACUCAUUCGG [hsa-mir-6741] | -0.0927
64 | CCGUUUAAAAAGGCAUCUCCAAG [hsa-mir-608] | -1.45
65 | CCUAGAGUCCAUUCUUUACUCUAGG [hsa-mir-4779] | -0.507
66 | CCUAGUGGCUAGCCCUGGGUCUAGCAGCCUAUGGCAGUGUCUGGUAAACACUGGUGGAGUCCUGGG [hsa-mir-6745] | 0.335
67 | CCUCAAUCACUUGCCAGAGAGAUUGG [hsa-mir-1200] | -1.09
68 | CCUCACCUGCUGAGAG [hsa-mir-3670-3_3670-2_3670-1_3670-4] | 0.409
69 | CCUCCCCCAGUGCCAGG [hsa-mir-3196] | -0.591
70 | CCUCCCUAGGGGAUCCCAGGUAGG [hsa-mir-4688] | -0.606
